First the molecules themselves.
T1: interleukin-23 receptor (IL-23R), Q5VWK5
T1 chain: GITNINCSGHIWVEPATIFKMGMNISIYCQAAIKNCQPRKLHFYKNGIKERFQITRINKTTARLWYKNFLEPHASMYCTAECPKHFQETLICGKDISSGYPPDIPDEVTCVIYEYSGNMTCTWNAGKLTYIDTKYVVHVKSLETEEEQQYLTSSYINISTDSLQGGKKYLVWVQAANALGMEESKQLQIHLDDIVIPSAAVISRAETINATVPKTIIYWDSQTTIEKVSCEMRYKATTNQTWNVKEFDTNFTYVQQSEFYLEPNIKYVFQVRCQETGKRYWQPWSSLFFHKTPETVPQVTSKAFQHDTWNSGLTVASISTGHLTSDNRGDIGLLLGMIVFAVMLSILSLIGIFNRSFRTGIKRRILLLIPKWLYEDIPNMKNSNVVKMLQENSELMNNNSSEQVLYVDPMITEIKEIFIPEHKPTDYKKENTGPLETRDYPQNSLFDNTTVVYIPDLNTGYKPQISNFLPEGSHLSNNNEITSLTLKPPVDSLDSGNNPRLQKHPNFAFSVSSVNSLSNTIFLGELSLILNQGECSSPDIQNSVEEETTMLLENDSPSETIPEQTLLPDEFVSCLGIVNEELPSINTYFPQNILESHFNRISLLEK

B1: SEQ ID NO: 268 (peptide)
peptide: K[Pen]NT[Trp(7-Me)]K(Ac)[Pen][2‑amino‑3‑(4-(2-aminoethoxy)phenyl)propanoic acid][2‑amino‑3‑(6-hydroxynaphthalen-2-yl)propanoic acid][Thp]EN[3Pal][Sar]
modifications: disulfide 2-7 (inferred); not fully specified (residue 1); ends not checked; also: K1: lipidated lysine
B2: SEQ ID NO: 267 (peptide)
peptide: [Pen]NT[Trp(7-Me)]K(Ac)[Pen][2‑amino‑3‑(4-(2-aminoethoxy)phenyl)propanoic acid][2‑amino‑3‑(6-hydroxynaphthalen-2-yl)propanoic acid][Thp]K(Ac)N[3Pal][Sar]K
modifications: disulfide 1-6 (inferred); not fully specified (residue 14); ends not checked; also: K14: lipidated lysine
B3: SEQ ID NO: 256 (peptide)
peptide: [Pen]NT[Trp(7-Me)]K(Ac)[Pen][2‑amino‑3‑(4-(2-aminoethoxy)phenyl)propanoic acid][2‑amino‑3‑(6-hydroxynaphthalen-2-yl)propanoic acid][Thp]K(Ac)N[3Pal][Sar]K
modifications: disulfide 1-6 (inferred); not fully specified (residue 14); ends not checked; also: K14: lipidated lysine, lipid not given here
B4: SEQ ID NO: 241 (peptide)
peptide: [Pen]NT[Trp(7-Me)]K(Ac)[Pen][AEF][2Nal(6-OH)][Thp]K(Ac)N[3Pal][Sar]K(lipid)
modifications: disulfide 1-6 (inferred); ends not checked; also: Lys14 lipidated, lipid not given here
B5: SEQ ID NO: 395 (peptide)
peptide: K[Pen]ET[Trp(7-Me)]K(Ac)[Pen][2‑amino‑3‑(4-(2-aminoethoxy)phenyl)propanoic acid][2‑amino‑3‑(6-hydroxynaphthalen-2-yl)propanoic acid][Thp]EN[3Pal][Sar]
modifications: not fully specified (residue 1, bridges); ends and bridges not checked; also: Lys1: lipidated lysine, lipid not given here
B6: SEQ ID NO: 255 (peptide)
peptide: R[Pen]NT[Trp(7-Me)]K(Ac)[Pen][2‑amino‑3‑(4-(2-aminoethoxy)phenyl)propanoic acid][2‑amino‑3‑(6-hydroxynaphthalen-2-yl)propanoic acid][Thp]K(Ac)N[3Pal][Sar]K
modifications: disulfide 2-7 (inferred); not fully specified (residue 15); ends not checked; also: K15: lipidated lysine, lipid not given here
B7: SEQ ID NO: 244 (peptide)
peptide: R[Pen]NT[Trp(7-Me)]K(Ac)[Pen][AEF][2Nal(6-OH)][Thp]EN[3Pal][Sar]K(lipid)
modifications: disulfide 2-7 (inferred); ends not checked; also: Lys15 lipidated, lipid not given here
B8: SEQ ID NO: 254 (peptide)
peptide: R[Pen]NT[Trp(7-Me)]K(Ac)[Pen][2‑amino‑3‑(4-(2-aminoethoxy)phenyl)propanoic acid][2‑amino‑3‑(6-hydroxynaphthalen-2-yl)propanoic acid][Thp]K(Ac)N[3Pal][Sar]K
modifications: disulfide 2-7 (inferred); not fully specified (residue 15); ends not checked; also: K15: lipidated lysine, lipid not given here
B9: SEQ ID NO: 72 (peptide)
peptide: [Pen]NT[Trp(7-Me)]K(Ac)[Pen][AEF][2Nal(6-OH)][Thp]K(Ac)N[3Pal][Sar]K
modifications: not fully specified (bridges); ends and bridges not checked; also: K14: lipidated lysine, lipid not given here
B10: SEQ ID NO: 269 (peptide)
peptide: R[Pen]NT[Trp(7-Me)]K(Ac)[Pen][2‑amino‑3‑(4-(2-aminoethoxy)phenyl)propanoic acid][2‑amino‑3‑(6-hydroxynaphthalen-2-yl)propanoic acid][Thp]EN[3Pal][Sar]K
modifications: disulfide 2-7 (inferred); not fully specified (residue 15); ends not checked; also: K15: lipidated lysine

Starred links: 1 amine or outer side, 2 acyl side, 3 side chain; linkers in the order of their positions; H or OH if unused. Positions of bridges follow the written chain, without caps; N, C: chain ends. Non-standard residues stand in square brackets, D forms with d. No end group written: not given here. X3 = 4‑(2-(4-(2-amino-2-carboxyethyl)phenoxy)ethyl)‑4‑methylmorpholin‑4‑ium, C[N+]1(CCOc2ccc(CC(N[*:1])C(=O)[*:2])cc2)CCOCC1; 2Nal(6-OH) = N[C@@H](Cc1ccc2cc(O)ccc2c1)C(=O)O; Trp(7-Me) = Cc1cccc2c(C[C@H](N)C(=O)O)c[nH]c12; AEF = NCCOc1ccc(C[C@H](N)C(=O)O)cc1; 3Pal = N[C@@H](Cc1cccnc1)C(=O)O; Pen = CC(C)(S)[C@H](N)C(=O)O; lipid = not defined here; Thp = NC1(C(=O)O)CCOCC1; Sar = CNCC(=O)O

The test deals with T1, interleukin-23 receptor (IL-23R), Q5VWK5. As to the kind of experiment: cell-based or functional assay.
B1 displayed a PBMC pSTAT3 IC50 of under 1 nM.

On to B2, for which the PBMC pSTAT3 IC50 is under 1 nM.

For the molecule B3, the PBMC pSTAT3 IC50 was under 1 nM.

Regarding [Pen]NT[Trp(7-Me)]K(Ac)[Pen][2‑amino‑3‑(4-(2-aminoethoxy)phenyl)propanoic acid][2‑amino‑3‑(6-hydroxynaphthalen-2-yl)propanoic acid][Thp]K(Ac)N[3Pal][Sar]K(lipid) (disulfide 1-6 (inferred); ends not checked; also: K14: lipidated lysine) [SEQ ID NO: 271], the PBMC pSTAT3 IC50 is under 1 nM.

In the case of [(R)‑3‑carboxy‑2‑(4-(((R)-5-carboxy-5-hydrazineylpentyl)amino)-4-oxobutanamido)‑N,N,N‑trimethylpropan‑1‑aminium][Pen]NT[Trp(7-Me)]K(Ac)[Pen][2‑amino‑3‑(4-(2-aminoethoxy)phenyl)propanoic acid][2‑amino‑3‑(6-hydroxynaphthalen-2-yl)propanoic acid][Thp]EN[3Pal][Sar] (disulfide 2-7 (inferred); ends not checked) [SEQ ID NO: 264], the PBMC pSTAT3 IC50 is under 0.01 nM.

On to [Pen]NT[Trp(7-Me)]K(Ac)[Pen][2‑amino‑3‑(4-(2-aminoethoxy)phenyl)propanoic acid][2‑amino‑3‑(6-hydroxynaphthalen-2-yl)propanoic acid][Thp]K(Ac)N[3Pal][Sar]K(lipid) (disulfide 1-6 (inferred); ends not checked; also: K14: lipidated lysine) [SEQ ID NO: 277], for which the PBMC pSTAT3 IC50 is under 1 nM.

[(R)‑3‑carboxy‑2‑(4-(((R)-5-carboxy-5-hydrazineylpentyl)amino)-4-oxobutanamido)‑N,N,N‑trimethylpropan‑1‑aminium][Pen]NT[Trp(7-Me)]K(Ac)[Pen][2‑amino‑3‑(4-(2-aminoethoxy)phenyl)propanoic acid][2‑amino‑3‑(6-hydroxynaphthalen-2-yl)propanoic acid][Thp]EN[3Pal][Sar] (disulfide 2-7 (inferred); ends not checked) [SEQ ID NO: 265]: the PBMC pSTAT3 IC50 was under 1 nM.

In turn, [Pen]NT[Trp(7-Me)]K(Ac)[Pen][5‑(4-(2-amino-2-carboxyethyl)phenoxy)‑N,N,N‑trimethylpentan‑1‑aminium][2Nal(6-OH)][Thp]EN[3Pal][Sar] (not fully specified (bridges); ends and bridges not checked) [SEQ ID NO: 75] displayed an IL23R Reporter Assay IC50 of under 10 nM.

Regarding R[Pen]NTWK(Ac)[Pen][X3][2Nal(6-OH)][Thp]EN[3Pal][Sar] (not fully specified (bridges); ends and bridges not checked) [SEQ ID NO: 73], the IL23R Reporter Assay IC50 is under 10 nM.

Take B4: the PBMC pSTAT3 IC50 is under 1 nM.

Molecule B5 gave a PBMC pSTAT3 IC50 of under 1 nM.

The molecule B6 displayed a PBMC pSTAT3 IC50 of under 1 nM.

As to B7, the PBMC pSTAT3 IC50 is under 1 nM.

As for [(R)‑3‑carboxy‑2‑(4-(((R)-5-carboxy-5-hydrazineylpentyl)amino)-4-oxobutanamido)‑N,N,N‑trimethylpropan‑1‑aminium][Pen]NT[Trp(7-Me)]K(Ac)[Pen][2‑amino‑3‑(4-(2-aminoethoxy)phenyl)propanoic acid][2‑amino‑3‑(6-hydroxynaphthalen-2-yl)propanoic acid][Thp]EN[3Pal][Sar] (disulfide 2-7 (inferred); ends not checked) [SEQ ID NO: 263], the PBMC pSTAT3 IC50 was under 1 nM.

The molecule [(R)‑3‑carboxy‑2‑(4-(((R)-5-carboxy-5-hydrazineylpentyl)amino)-4-oxobutanamido)‑N,N,N‑trimethylpropan‑1‑aminium][Pen]NT[Trp(7-Me)]K(Ac)[Pen][2‑amino‑3‑(4-(2-aminoethoxy)phenyl)propanoic acid][2‑amino‑3‑(6-hydroxynaphthalen-2-yl)propanoic acid][Thp]EN[3Pal][Sar] (disulfide 2-7 (inferred); ends not checked) [SEQ ID NO: 266] showed a PBMC pSTAT3 IC50 of under 0.1 nM.

The molecule B8 registered a PBMC pSTAT3 IC50 of under 1 nM.

For the molecule B9, the IL23R Reporter Assay IC50 is under 10 nM.

On to B10, for which the PBMC pSTAT3 IC50 was under 1 nM.
